The target in the assay is T1, human Clever-1 (Common Lymphatic Endothelial and Vascular Endothelial Receptor-1) expressed on KG-1 cells (human, UniProt Q9NY15 26-2570).
T1 construct: whole, on cells; also called Stabilin-1
Put plainly: flow cytometry on KG-1 cells, 4 C, titration 10-0.014 µg/mL, AlexaFluor 647 anti-HuIgG secondary. The protocol: Excess primary antibody was removed and the cells were then incubated for a further 30 minutes at 4° C. with either an AlexaFluor 647 labelled anti-HulgG or PE labelled anti-rat IgG antibody (ThermoFisher Scientific, Loughborough, UK) at 10 μg/mL. The unbound secondary antibody was washed away, and the cells fixed with BD CellFix (BD Biosciences, Oxford, UK) before analysis. Samples were acquired on an Attune NxT focussing cytometer equipped with a blue and red laser (ThermoFisher Scientific, Loughborough, UK) using the BL2 and RL1 channels for PE and AlexaFluor 647 dyes, respectively. The MFI values were plotted against the antibody concentration. […] The MFI in the absence of primary antibody is represented by a dotted line.

T1 sequence (Q9NY15 26-2570): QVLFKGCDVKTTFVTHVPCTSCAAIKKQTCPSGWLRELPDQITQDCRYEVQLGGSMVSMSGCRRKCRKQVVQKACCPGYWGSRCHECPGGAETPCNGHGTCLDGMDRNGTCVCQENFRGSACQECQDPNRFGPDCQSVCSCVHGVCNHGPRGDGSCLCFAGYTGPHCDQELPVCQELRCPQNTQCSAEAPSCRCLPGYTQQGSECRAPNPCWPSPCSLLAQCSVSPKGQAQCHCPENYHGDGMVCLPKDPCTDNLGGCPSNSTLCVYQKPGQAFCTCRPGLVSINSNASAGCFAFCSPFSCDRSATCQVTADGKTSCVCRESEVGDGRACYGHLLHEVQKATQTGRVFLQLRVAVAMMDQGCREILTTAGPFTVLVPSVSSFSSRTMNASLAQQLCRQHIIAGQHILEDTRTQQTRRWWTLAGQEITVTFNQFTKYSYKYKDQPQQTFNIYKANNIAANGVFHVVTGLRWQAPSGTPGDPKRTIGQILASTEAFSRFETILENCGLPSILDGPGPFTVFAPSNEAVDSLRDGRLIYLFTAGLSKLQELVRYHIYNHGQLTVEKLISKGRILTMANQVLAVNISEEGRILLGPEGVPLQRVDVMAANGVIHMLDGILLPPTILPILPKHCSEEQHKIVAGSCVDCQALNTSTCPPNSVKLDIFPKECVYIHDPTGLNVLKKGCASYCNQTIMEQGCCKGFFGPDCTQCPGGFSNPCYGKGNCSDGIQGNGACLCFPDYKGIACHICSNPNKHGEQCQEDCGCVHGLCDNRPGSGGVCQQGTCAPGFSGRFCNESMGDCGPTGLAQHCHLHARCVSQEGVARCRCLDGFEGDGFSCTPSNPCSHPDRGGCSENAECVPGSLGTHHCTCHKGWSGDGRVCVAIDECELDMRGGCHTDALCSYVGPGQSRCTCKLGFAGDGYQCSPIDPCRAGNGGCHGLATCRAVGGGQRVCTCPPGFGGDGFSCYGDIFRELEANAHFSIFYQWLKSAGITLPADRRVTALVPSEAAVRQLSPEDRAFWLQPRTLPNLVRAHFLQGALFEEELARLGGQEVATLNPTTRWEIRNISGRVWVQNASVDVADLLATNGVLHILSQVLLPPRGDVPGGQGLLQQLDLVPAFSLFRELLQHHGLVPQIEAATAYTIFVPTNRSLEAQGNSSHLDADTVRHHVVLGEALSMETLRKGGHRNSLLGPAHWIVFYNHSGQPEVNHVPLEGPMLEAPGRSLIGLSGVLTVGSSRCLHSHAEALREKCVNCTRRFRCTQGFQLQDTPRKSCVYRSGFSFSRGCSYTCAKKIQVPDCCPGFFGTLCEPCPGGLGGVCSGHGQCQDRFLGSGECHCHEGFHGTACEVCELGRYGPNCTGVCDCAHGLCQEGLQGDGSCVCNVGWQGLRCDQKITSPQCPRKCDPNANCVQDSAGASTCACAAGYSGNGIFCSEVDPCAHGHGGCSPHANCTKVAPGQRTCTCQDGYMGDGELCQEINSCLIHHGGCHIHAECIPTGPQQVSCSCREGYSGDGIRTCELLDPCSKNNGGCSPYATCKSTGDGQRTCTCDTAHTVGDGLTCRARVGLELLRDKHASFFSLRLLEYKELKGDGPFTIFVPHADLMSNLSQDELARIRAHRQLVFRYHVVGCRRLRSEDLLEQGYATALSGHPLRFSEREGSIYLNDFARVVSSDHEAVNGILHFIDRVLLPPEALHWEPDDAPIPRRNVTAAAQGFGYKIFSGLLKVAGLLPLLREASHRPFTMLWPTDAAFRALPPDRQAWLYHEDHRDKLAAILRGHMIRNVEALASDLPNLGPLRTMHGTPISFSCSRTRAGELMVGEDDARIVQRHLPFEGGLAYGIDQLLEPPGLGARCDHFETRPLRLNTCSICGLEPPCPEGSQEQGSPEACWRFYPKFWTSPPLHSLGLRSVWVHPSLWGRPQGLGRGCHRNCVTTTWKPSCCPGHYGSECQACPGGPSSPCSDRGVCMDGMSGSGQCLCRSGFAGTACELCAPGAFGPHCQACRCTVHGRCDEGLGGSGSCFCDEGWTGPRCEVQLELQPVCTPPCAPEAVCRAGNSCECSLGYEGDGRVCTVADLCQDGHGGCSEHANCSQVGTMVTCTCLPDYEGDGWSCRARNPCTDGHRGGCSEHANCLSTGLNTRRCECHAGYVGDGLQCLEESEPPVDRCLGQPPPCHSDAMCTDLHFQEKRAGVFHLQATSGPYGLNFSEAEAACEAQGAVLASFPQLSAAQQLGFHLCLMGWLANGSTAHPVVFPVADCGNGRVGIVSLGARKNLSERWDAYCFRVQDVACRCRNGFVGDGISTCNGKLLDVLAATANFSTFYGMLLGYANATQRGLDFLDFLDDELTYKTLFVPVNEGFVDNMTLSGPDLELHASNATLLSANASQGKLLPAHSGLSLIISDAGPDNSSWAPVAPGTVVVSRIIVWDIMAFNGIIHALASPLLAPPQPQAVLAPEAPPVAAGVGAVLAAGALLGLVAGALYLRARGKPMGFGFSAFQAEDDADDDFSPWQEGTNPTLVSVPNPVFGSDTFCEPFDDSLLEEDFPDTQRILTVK

B1: humanized anti-Clever-1 antibody FP-1305 (DSM ACC3361) (antibody, human IgG4 S228P, kappa, V domains shown)
VH: QVTLKESGPTLVKPTQTLTLTCSFSGFSLSTSGMGIGWIRQPPGKALEWLAHIWWDDDKRYNPALKSRLTISKDTSKNQVVLTMTNMDPVDTATYYCARHYGYDPYYAMDYWGQGTLVTVSS
VL: EIVLTQSPGTLSLSPGERATLSCTASSSVSSSYLHWYQQKPGKAPKLLIYRTSNLASGVPSRFSGSGSGTDYTLTISSLQPEDFATYYCHQYHRSPPTFGQGTKLEIKR
notes: Its isotype control is HuIgG4 S241P L248E; also called bexmarilimab
Consider B1, for which the binding result is on record as “binds”.

The values are drawn from US20220357348A1 (FARON PHARMACEUTICALS, published 2022).
